Reference: patent US12662531B2, “CLDN18.2 antibody and use thereof” (FUTUREGEN BIOPHARMACEUTICAL (BEIJING) CO., LTD., priority 2019, dated 2026)

Tests used:
[1] = molecular target: T1, CLDN18.2 (CT26-CLDN18.2 cells) (Homo sapiens, UniProt P56856); experiment: Flow cytometry binding of recombinant antibodies to CT26-CLDN18.2 cells; conditions: 4° C. 1 hour
T1 construct: expressed in transfected cells; host or cells: CT26 cells (mouse), lentiviral transduction, puromycin selection
Method: Binding activities of the recombinant monoclonal antibodies to CLDN18.2 were determined. Specifically, well-grown cell lines stably expressing CT26-CLDN18.2 were taken. The cells were washed with PBS, mixed with the fold-diluted antibody and incubated at 4° C. for 1 hour. The cells were washed once with flow cytometry buffer, PE-labeled anti-human IgG antibody was added, and incubated at 4° C. for 30 minutes. The supernatant was removed by centrifugation, and after the cells were washed with flow cytometry buffer, the fluorescence intensity on the surface of the cells was tested by flow cytometry. The relative binding activity of each antibody was calculated using the average fluorescence intensity.
The binding activity of the defucosylated antibodies 18.2-A1F, 18.2-A3F and 18.2-A4F to CLDN18.2 as compared to the binding activity of 18.2-A1, 18.2-A3 and 18.2-A4 to CLDN18.2 was tested by flow cytometry, the method of which is as described in Example 5, and the experimental results are shown in FIG. 7.

control CT26 cell line = experiment: Flow cytometry binding to control CT26 cell line; conditions: results not shown
[2] = molecular target: T2, CLDN18.2 (CLDN18.2-Flag 293t cells) (Homo sapiens, UniProt P56856); experiment: Binding specificity, 293t cells expressing CLDN18.2-Flag, flow cytometry; conditions: 10 μg/ml antibody, 4° C. 1 hour
T2 construct: expressed in transfected cells; host or cells: 293t cells, transient transfection
From the text: (§1) Human Claudin18 proteins include two homologues, i.e., CLDN18.1 and CLDN18.2, which share exons other than exon 1, and the exon 1 sequences of CLDN18.1 and CLDN18.2 are highly similar with only 8 different amino acids in the first extracellular region. The exon 1 of CLDN18.1 and the exon 1 of CLDN18.2 are specifically expressed in different tissues driven by different promoters. Among them, CLDN18.1 is specifically expressed in lung epithelial cells, while CLDN18.2 is specifically expressed in gastric epithelial cells. To identify the specificity of the screened CLDN18.2 antibodies, binding of the antibodies to CLDN18.1 and CLDN18.2 was tested.
(§2) Specifically, well-grown 293t cells were taken to transiently express flag-tagged CLDN18.1 (CLDN18.1-Flag) or CLDN18.2 (CLDN18.2-Flag). 48 hours after transfection, the cells were digested with trypsin. After washed with flow cytometry buffer, the cells were mixed with 10 μg/ml of isotype control antibody or one of the above five CLDN18.2 antibodies in 200 μl of flow cytometry buffer, and were incubated at 4° C. for 1 hour. Subsequently, the cells were washed once with flow cytometry buffer, PE-labeled anti-human IgG antibody was added, and incubated at 4° C. for 30 min. The supernatant was removed by centrifugation, wash was performed twice with flow cytometry buffer, and the cells were fixed in a fix solution containing 1% paraformaldehyde and 0.5% triton-X100 and the cell membrane was permeabilized. Subsequently, the cells were incubated with APC-labeled anti-flag antibody for 30 min and tested by flow cytometry.

[3] = molecular target: T3, CLDN18.1 (CLDN18.1-Flag 293t cells) (Homo sapiens, UniProt P56856); experiment: Binding specificity, 293t cells expressing CLDN18.1-Flag, flow cytometry; conditions: 10 μg/ml antibody, 4° C. 1 hour
T3 construct: expressed in transfected cells; host or cells: 293t cells, transient transfection
From the text: as §1, §2

[4] = tested on: SNU601 cells expressing CLDN18.2; experiment: Endocytosis of antibody after binding to SNU601 cells stably expressing CLDN18.2; assay type: cell-based; conditions: 10 μg/ml, 4 h
Method: It has been reported that the binding of some antibodies to cell surface antigens can cause endocytosis of antigen and antibody complexes, thereby reducing the expression level of the cell surface antigens and accelerating antibody metabolism in vivo (Schrama D et al., 2006, Nat Rev Drug Discov). In this example, the ability of antibodies 18.2-A1, 18.2-A3, 18.2-A4 and 18.2-A6 to be endocytosed by cells was tested in SNU601 cells stably expressing CLDN18.2. […] Subsequently, they were washed at 4° C. and stained with PE-labeled anti-human IgG antibody. After fixation with 4% formalin, antibody binding on the cell surface was tested by flow cytometry.

FcγRIIIa = experiment: Biacore binding to FcγRIIIa; conditions: FcγRIIIa captured as ligand, antibody as analyte
Method: Subsequently, the binding activity of the CLDN18.2 antibody and its defucosylated form to FcγRIIIa was tested using the Biacore method. Specifically, FcγRIIIa (Sino Biological Inc, 10389-H08C1) was diluted to 0.1 μg/ml in HBS-EP buffer as a ligand, and 18.2-A1F and 18.2-A1 antibody samples were diluted to 360 μg/ml, 120 μg/ml, 40 μg/ml, 13.3 μg/ml and 4.4 μg/ml respectively as analytes. The ligand FcγRIIIa was immobilized using an indirect capture method. First, 50 μg/ml of Anti-His IgG was covalently bound to the surface of CMS chip through amino coupling, followed by the binding of the ligand and analyte. Affinity analysis experiments were performed in Biacore Wizard mode using a multi-cycle approach with FcγRIIIa as the ligand and 18.2-A1F and 18.2-A1 antibody samples as analytes.
The test for each sample includes three Start up, one zero concentration control, five gradient concentration samples and one replicate sample (reference). The chip was regenerated with 10 mM glycine-HCl, pH 1.5 regeneration solution after each cycle. Each concentration cycle of the analyte was set with a capture time of 60 s and a flow rate of the ligand solution of 10 μl/min; a binding time of ligand and analyte of 180 s, and a flow rate of the analyte solution of 30 μl/min; and a dissociation time of 180 s. The CMS chip coupled with Anti-His IgG was placed in the slot for detection and analysis. […]

[5] = tested on: human FcγRIIIa (V158) on FcγRIIIa-Jurkat cells; experiment: Flow cytometry binding to FcγRIIIa-Jurkat cells
From the text: We next further tested the binding activity of the CLDN18.2 antibodies and their defucosylated forms to FcγRIIIa expressed on the cell surface. Specifically, the human FcγRIIIa (V158, high FC binding subtype) gene was cloned into a mammalian cell expression vector carrying a puromycin screening marker and transfected into a Jurkat cell line. A cell line stably expressing FcγRIIIa (FcγRIIIa-Jurkat) was screened with puromycin. In addition, NK92MI is a human NK cell line that naturally expresses the FcγRIIIa receptor (F158, low FC binding subtype). The binding ability of the CLDN18.2 antibodies and their defucosylated forms to FcγRIIIa expressed on the surface of FcγRIIIa-jurkat cells and NK92MI cells was tested by flow cytometry. The specific flow cytometry assay is described with reference to Example 6.

[6] = tested on: untransfected Jurkat cells; experiment: Flow cytometry binding to untransfected Jurkat cells; conditions: results not shown

B1: 18.2-A1: recombinant monoclonal CLDN18.2 antibody, VH SEQ ID NO: 1, VL SEQ ID NO: 6 (antibody, V domains shown)
VH: EVQLVQSGAEVKKPGASVKVSCKASGYTFTSSWLIWVRQAPGQGLEWIGTIVPSDSYTNYNQKFKDRATLTVDKSTSTAYMELSSLRSEDTAVYYCTRFRTGNSFDYWGQGTLVTVSS
VL: DIVMTQSPDSLSVGLGERATINCKSSQSVLNSGNQKNYLTWYQQKPGQPPKLLIYWAVARQSGVPDRFSGSGSGTDFTLTISSLQAEDVAVYYCQNSIAYPFTFGQGTKVEIK
modifications: 18.2-A1 VH; 18.2-A1 VL
binding to CT26 cell line expressing CLDN18.2 [1]: able to bind well | binding to control CT26 cell line (control CT26 cell line): did not bind | binding to CLDN18.2-flag transfected positive 293t cells [2]: able to bind well | binding to CLDN18.1-positive cells [3]: none of the six antibodies bound | binding to SNU601 cells expressing CLDN18.2 under 4° C. incubation ([4]; 4° C.): bound well | antibody staining/binding on the cell surface under 37° C. incubation ([4]; 37° C.): still bound well | endocytosis by cells under 37° C. incubation ([4]; 37° C.): did not undergo significant endocytosis | binding to FcγRIIIa (Biacore) (FcγRIIIa): able to bind to FcγRIIIa effectively | binding to FcγRIIIa-jurkat cells [5]: able to bind | binding to untransfected Jurkat cells [6]: not able to bind
